Test results: PMC6771872, “Fast‐acting insulin aspart in people with type 2 diabetes: Earlier onset and greater initial exposure and glucose‐lowering effect compared with insulin aspart” (Diabetes, Obesity & Metabolism, 2019)

How the values were obtained:
Type in all cases: in vivo, human
[1] = test system: people with type 2 diabetes; assay: Euglycaemic glucose clamp, glucose infusion rate (glucose-lowering effect); conditions: people with T2D, single s.c. 0.3 U/kg, n = 56 faster aspart, 59 IAsp
Procedure: Participants arrived at the clinical site at 4:30 PM the day before dosing, were served a standardized meal and started fasting from 7:00 PM. In order to assess the pharmacodynamics of faster aspart and IAsp, a euglycaemic glucose clamp was conducted with an overnight run‐in period starting at 10:00 PM. Participants received a variable intravenous infusion of human insulin [40 IU Actrapid® 100 IU/mL (Novo Nordisk) in 99.6 mL saline] or 20% glucose to obtain the plasma glucose (PG) target concentration of 5.0 mmol/L. The trial product was administered between 8:00 AM and 10:00 AM the next morning after PG had stabilized for ≥1 hour with minimum insulin infusion and no glucose infusion. At the time of dosing, any infusion of intravenous insulin was terminated. After PG had declined by 0.3 mmol/L (defined as onset of action), a variable intravenous glucose infusion was initiated to keep PG at the target throughout the clamp. The clamp continued for up to 12 hours after dosing, but was terminated if PG was consistently ≥11.1 mmol/L, with no requirement for intravenous glucose infusion during the previous 30 minutes. The individual clamps were performed with similar high quality across both treatments (Figure S1 and Table S1 in Appendix S1).11
Measurement of PG concentrations during the glucose clamp was performed with a SuperGL 2 glucose analyser (Dr Müller Gerätebau GmbH, Freital, Germany) using an electrochemical method.
(§1) All pharmacokinetic and glucose infusion rate (GIR) endpoints to assess onset of exposure and glucose‐lowering effect, initial IAsp exposure and glucose‐lowering effect, offset of exposure and glucose‐lowering effect, and overall exposure and glucose‐lowering effect were defined and derived as previously described.5 In a blinded review of pharmacokinetic profiles, it was observed that selected profiles had pre‐dose values above the LLOQ and stayed above the LLOQ for the entire sampling period. It was therefore decided to baseline‐correct these profiles using a baseline value derived as the mean of all pre‐dose samples. After baseline correction, all pre‐dose values and negative values were set to zero. All pharmacokinetic endpoints for the baseline‐corrected profiles were derived in the same way as those for the non‐baseline‐corrected profiles.

[2] = test system: people with type 2 diabetes; assay: Suppression of serum free fatty acid (FFA) concentration after dosing; conditions: people with T2D, single s.c. 0.3 U/kg
Procedure: Serum free fatty acid (FFA) concentrations were measured using a Wako NEFA assay (Wako Diagnostics, Mountain View, California), performed on a Roche Cobas C501 analyser (Roche Diagnostics GmbH, Mannheim, Germany).
The suppression of serum FFA concentration initially after dosing was determined by calculating the area over the baseline‐corrected serum FFA concentration‐time curve during the first hour (ΔAOCFFA,0‐1 h) and the first 2 hours (ΔAOCFFA,0‐2 h) as well as the time to reach 50% of the maximum FFA decline in the initial part of the FFA profile (t50% max FFA decline). Furthermore, the minimum FFA concentration (FFAmin) was derived.
Statistical analyses were performed using SAS version 9.4 (SAS Institute, Cary, North Carolina). All endpoints were compared between faster aspart and IAsp using a linear mixed model, with treatment and period as fixed effects and participant as a random effect. The P value for the two‐sided test of no treatment difference using a significance level of 5% was estimated from the model. For FFA endpoints, baseline FFA was included as a covariate. […] Least squares means for each treatment, treatment ratios and 95% confidence intervals (CIs) were calculated on the original scale. All other endpoints were analysed on a linear scale: least squares means for each treatment, treatment differences and 95% CIs were estimated. Treatment ratios and 95% CIs were determined according to Fieller's method.14

[3] = Serum IAsp pharmacokinetics after single subcutaneous dose (IAsp-specific ELISA); conditions: people with T2D, single s.c. 0.3 U/kg, 59 IAsp
Text: At the two dosing visits, participants received single dosing of 0.3 U/kg faster aspart (100 U/mL; Novo Nordisk, Bagsværd, Denmark) or IAsp (NovoRapid® 100 U/mL; Novo Nordisk) in a randomized sequence. Both trial products were provided in blinded PDS290 pen‐injector prefilled pens (Novo Nordisk) and administered subcutaneously in a lifted skin fold of the lower abdominal wall above the inguinal area. Use of current insulin was terminated in due time to allow washout before faster aspart and IAsp administration.
Blood sampling for pharmacokinetics was performed frequently from 2 minutes prior to dosing until 12 hours post‐dose (Table S2 in Appendix S1).
A validated IAsp‐specific enzyme‐linked immunosorbent assay with a lower limit of quantification (LLOQ) of 10 pmol/L was used to measure free serum IAsp concentrations following polyethylene glycol precipitation.
as §1

[4] = test system: people with type 2 diabetes; assay: Safety assessments (adverse events, hypoglycaemic episodes, injection site reactions); conditions: single s.c. 0.3 U/kg
Text: Safety assessments included adverse events (AEs), hypoglycaemic episodes, injection site reactions, laboratory safety measures, physical examination, vital signs and ECG. AEs were defined as treatment‐emergent if they had onset within the period from time of trial product administration until 7 days later. Hypoglycaemic episodes were classified according to the American Diabetes Association12 and in addition defined as “confirmed” if documented by PG <3.1 mmol/L with or without symptoms consistent with hypoglycaemia. Hypoglycaemic episodes were defined as treatment‐emergent if they had onset between the time of trial product administration and the subsequent administration of any insulin; however, these should occur no longer than 16 hours after trial product administration.

[5] = euglycaemic clamp, LS mean ± SE
[6] = LS mean ± SE, n = 56 faster aspart, 58 IAsp

Substance: insulin aspart [IAsp]
- tLate 50% GIRmax (time to 50% of maximum GIR in the late part of the GIR profile) ([1]; offset of glucose-lowering effect, LS mean): 297.7 min
- AUCGIR,0-t (total glucose-lowering effect) ([1]; clamp up to 12 hours, LS mean): 904 mg/kg
- Onset of action (PG decline by 0.3 mmol/L) ([1]; euglycaemic clamp target 5.0 mmol/L, LS mean ± SE): 31.3 ± 1.4 min
- tEarly 50% GIRmax (time to 50% of maximum GIR in the initial part of the GIR profile) [1, 5]: 51.1 ± 2.3 min
- tGIRmax (time to maximum glucose infusion rate) [1, 5]: 155.6 ± 8.7 min
- AUCGIR,0-30min LS Mean ([1]; euglycaemic clamp, LS mean): 7.0 mg/kg
- AUCGIR,0-1h LS Mean ([1]; euglycaemic clamp, LS mean): 67 mg/kg
- AUCGIR,0-1.5h LS Mean ([1]; euglycaemic clamp, LS mean): 127 mg/kg
- AUCGIR,0-2h LS Mean ([1]; euglycaemic clamp, LS mean): 210 mg/kg
- AUCGIR,2-t (partial area under the GIR profile from 2 hours) ([1]; LS mean): 681 mg/kg
- GIRmax (maximum glucose infusion rate) ([1]; LS mean): 3.9 mg/kg/min
- t50% max FFA decline (time to reach 50% of the maximum decline in FFA) [2, 6]: 50.0 ± 2.3 min
- ΔAOCFFA,0-1 h (area over the baseline-corrected FFA curve, first hour) [2, 6]: 0.09 ± 0.01 mmol·h/L
- ΔAOCFFA,0-2 h (area over the baseline-corrected FFA curve, first 2 hours) [2, 6]: 0.38 ± 0.02 mmol·h/L
- Mean minimum FFA concentration (FFAmin) ([2]; mean ± spread as printed): 0.08 ± 0.05 mmol/L
- tLate 50% Cmax (time to 50% of maximum IAsp concentration in the late part of the PK profile) ([3]; offset of exposure, LS mean, n = 56 faster aspart): 237.8 min
- Onset of appearance ([3]; free serum IAsp by ELISA, LS mean ± SE, n = 56 faster aspart): 4.4 ± 0.3 min
- AUCIAsp,0-t (total IAsp exposure) ([3]; sampling until 12 hours, LS mean, n = 56 faster aspart): 1.403 nM·h
- tmax (time to maximum IAsp concentration) ([3]; LS mean ± SE, n = 55 faster aspart): 1.45 ± 0.0867 h
- tEarly 50% Cmax (time to 50% of maximum IAsp concentration in the initial part of the PK profile) ([3]; LS mean ± SE, n = 56 faster aspart): 27.9 ± 1.0 min
- AUCIAsp,0-15min LS Mean ([3]; LS mean, n = 56 faster aspart): 0.0074 nM·h
- AUCIAsp,0-1h LS Mean ([3]; LS mean, n = 56 faster aspart): 0.189 nM·h
- AUCIAsp,0-1.5h LS Mean ([3]; LS mean, n = 56 faster aspart): 0.355 nM·h
- AUCIAsp,0-2h LS Mean ([3]; LS mean, n = 56 faster aspart): 0.516 nM·h
- AUCIAsp,2-t (partial area under the serum IAsp profile from 2 hours) ([3]; LS mean, n = 56 faster aspart): 0.841 nM·h
- Cmax (maximum IAsp concentration) ([3]; LS mean, n = 56 faster aspart): 0.384 nM
- AUCIAsp,0-30min LS Mean ([3]; primary endpoint, LS mean, n = 56 faster aspart): 0.042 nM·h
- Injection site reactions or treatment-emergent hypoglycaemic episodes ([4]; people with T2D): no injection site reactions or treatment‐emergent hypoglycaemic episodes were reported
- Tolerability ([4]; people with T2D): well tolerated
- Number of treatment-emergent AEs ([4]; safety analysis set 61 participants with T2D, onset within 7 days of dosing): 11
